Measured values from patent publication US20130071921A1 (Pfizer, published 2013).

What was measured:
[1] = target: T1, Recombinant human Dkk-1 (R&D Systems cat no. 1096-DK/CF), 10xHis tag at the C terminal (human, UniProt O94907 32-266); experiment: cell-based or functional assay
T1 sequence: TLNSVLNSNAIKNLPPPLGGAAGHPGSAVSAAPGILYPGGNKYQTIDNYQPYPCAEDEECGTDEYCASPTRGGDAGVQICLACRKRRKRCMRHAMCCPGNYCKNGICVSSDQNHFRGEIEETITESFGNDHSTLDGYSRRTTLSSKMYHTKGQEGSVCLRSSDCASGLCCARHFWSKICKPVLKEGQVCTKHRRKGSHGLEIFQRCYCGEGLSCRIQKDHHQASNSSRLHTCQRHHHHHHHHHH

[2] = target: T1, Recombinant human Dkk-1 (R&D Systems …); experiment: method not given
[3] = target: T2, recombinant mouse Dkk-1 (R&D systems Cat No. 1765-DK/CF) (mouse, UniProt O54908 32-272); experiment: method not given
T2 construct: Bought
T2 sequence (looked up): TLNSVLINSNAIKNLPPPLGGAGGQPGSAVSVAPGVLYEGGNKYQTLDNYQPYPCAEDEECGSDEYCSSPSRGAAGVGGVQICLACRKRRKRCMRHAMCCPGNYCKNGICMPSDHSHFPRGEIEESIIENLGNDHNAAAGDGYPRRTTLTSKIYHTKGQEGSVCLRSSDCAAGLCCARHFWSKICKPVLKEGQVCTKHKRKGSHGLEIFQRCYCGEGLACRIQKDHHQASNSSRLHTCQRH

[4] = target: T3, Cynomolgous monkey Dkk-1 (cynomolgous monkey); experiment: SPR BIAcore 3000, CM5 chip (Table 8)
[5] = target: T1, Recombinant human Dkk-1 (R&D Systems …); experiment: SPR BIAcore 3000, CM5 chip (Table 8)
[6] = target: T2, recombinant mouse Dkk-1 (R&D systems …); experiment: SPR BIAcore 3000, CM5 chip (Table 8)
[7] = target: T4, recombinant rat Dkk-1 (R&D systems Cat No. 4010-DK/CF) (rat); experiment: SPR BIAcore 3000, CM5 chip (Table 8)
T4 construct: Bought

[8] = target: T4, recombinant rat Dkk-1 (R&D systems Cat …); experiment: TMDD PK/PD model fit to rat serum data in vivo; derived as Koff/Kon
[9] = target: T3, Cynomolgous monkey Dkk-1; experiment: TMDD PK/PD model fit to monkey serum data in vivo; derived as Koff/Kon
[10] = target: T2, recombinant mouse Dkk-1 (R&D systems …); experiment: SPR BIAcore, huMabJC18 captured by goat Fab2 anti-human Fc, mouse Dkk-1 injected
Protocol: For the interaction analyses of huMabJC18 with mouse or rat Dkk-1, low-levels of huMabJC18 (typically, 100-400 response units) were captured on individual flow cells by goat Fab2 anti-human Fc, which was pre-immobilized to the CM5 chip surface. A goat Fab2 anti-human Fc-saturated flow cell containing no humanized antibody served as reference channel. Mouse or rat Dkk-1 (R&D Systems) was titrated over the chip using 70.1 nM or 30.2 nM as top concentration, respectively, of a three-fold dilution series Association and dissociation phases were monitored at 100 μL/min for 90 seconds and 30 minutes, respectively. Capture surfaces for all experiments were regenerated with two 30 second pulses of […] H₃PO₄, except for the amine-coupled huMabJC18 surface used in the human Dkk-1 experiment, which was not regenerated.

[11] = target: T5, recombinant mouse Dkk-2 (R&D systems Cat No. 2435-DK/CF) (mouse, UniProt Q9QYZ8 34-259, limits assumed); experiment: SPR BIAcore, huMabJC18 captured by goat Fab2 anti-human Fc, mDkk-2 titrated from 88.8 nM
T5 construct: Bought; also called mDkk-2
T5 sequence (looked up): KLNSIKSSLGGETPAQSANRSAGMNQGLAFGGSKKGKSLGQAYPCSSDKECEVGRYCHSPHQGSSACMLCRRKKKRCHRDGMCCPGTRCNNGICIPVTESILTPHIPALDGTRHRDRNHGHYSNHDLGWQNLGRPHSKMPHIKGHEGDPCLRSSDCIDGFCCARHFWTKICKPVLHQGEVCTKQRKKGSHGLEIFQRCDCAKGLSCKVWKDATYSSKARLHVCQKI

[12] = target: T6, recombinant mouse Dkk-4 (R&D systems Cat No. 3105-DK/CF) (mouse, UniProt Q8VEJ3 19-221, limits assumed); experiment: SPR BIAcore, huMabJC18 captured by goat Fab2 anti-human Fc, mDkk-4 titrated from 32.3 nM
T6 construct: Bought; also called mDkk-4
T6 sequence (looked up): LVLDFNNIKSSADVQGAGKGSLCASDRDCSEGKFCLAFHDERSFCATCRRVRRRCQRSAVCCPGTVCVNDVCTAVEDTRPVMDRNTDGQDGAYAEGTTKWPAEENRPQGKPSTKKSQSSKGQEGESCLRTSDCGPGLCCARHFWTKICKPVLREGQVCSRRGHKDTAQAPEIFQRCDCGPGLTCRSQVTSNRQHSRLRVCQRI

B1: huMabJC18, fully humanized anti-Dkk-1 monoclonal antibody (antibody, human IgG2, kappa, V domains shown)
VH: EVQLVESGGGLVQPGGSLRLSCAASGFTFSSYAISWVRQAPGKGLEWVASVSGTGLGFQTYYPDSVKGRFTISRDNAKNSLYLQMNSLRAEDTAVYYCATSLENYAFDYWGQGTTVTVSS
VL: EIVLTQSPATLSLSPGERATLSCRASESVDDFGISFINWYQQKPGQAPRLLIYAGSKQGSGIPARFSGSGSGTDFTLTISSLEPEDFAVYYCQQLKEVPPTFGGGTKVEIKR
notes: IgG2(delta a: A329S, P330S), kappa; also called huMabJC18 IgG
With B1 the “IC50 in a Cell-based Functional Assay (U2OS TOPFlash luciferase; reversal of Dkk-1 inhibition of Wnt3a signaling)” value [1] was 1.3 nM, the “fold increase in affinity against the parent mouse antibody JC18” value [2] was > 100 fold and the “fold increase in affinity against the parent mouse antibody JC18” value [3] was > 100 fold. For the same binder, the T1/2 [4] was > 5 h, the koff [4] was < 6e-05 s⁻¹ and the Kd [5] was < 0.002 nM. For the same binder, the T1/2 [5] was > 96.3 h, the koff [5] was < 2e-06 s⁻¹ and the kon [5] was > 1.3e+06 M⁻¹ s⁻¹. For the same binder, the Kd [6] was < 0.03 nM, the T1/2 [6] was > 4.94 h and the koff [6] was < 3.9e-05 s⁻¹. For the same binder, the kon [6] was > 1.3e+06 M⁻¹ s⁻¹, the Kd [7] was < 0.1 nM and the T1/2 [7] was 0.92 h. For the same binder, the koff [7] was 0.00021 s⁻¹, the kon [7] was > 1.3e+06 M⁻¹ s⁻¹ and the Kd [8] was 0.0348 nM. For the same binder, the Kd [9] was 0.0513 nM, the Kd [10] was < 0.03 nM and the T1/2 [10] was > 4.94 h. The koff [10] was < 3.9e-05 s⁻¹, the kon [10] was > 1.3e+06 M⁻¹ s⁻¹ and the Kd [11] was 9 nM. It also gave a T1/2 [11] of 1.14 h, a koff [11] of 0.000169 s⁻¹ and a kon [11] of 18000 M⁻¹ s⁻¹. For the same binder, the Kd [12] was < 0.03 nM, the T1/2 [12] was > 4.94 h and the koff [12] was < 3.9e-05 s⁻¹. The kon [12] was > 1.3e+06 M⁻¹ s⁻¹.
